Experimental findings from patent publication US20210403582A1 (JACOBIO PHARMACEUTICALS, published 2021) are described below.

The target in test [1] is recombinant mouse LIF protein (mouse, UniProt P09056 24-203). In words: ELISA, mouse LIF coated at 1 µg/mL, A450. As to the method:
(§1) The recombinant mouse LIF protein (purchased from ACRO Biosystems) was diluted to 1 μg/mL, and was coated on the enzyme label plate, 100 μL of protein was added into every well, and incubated overnight in 4° C. The enzyme label plates were taken out next day, and the liquid was discarded, and were washed with PBST three times and blocked with 2% BSA in PBS for 1 h at room temperature, then washed with PBST three times, and added anti-human LIF antibodies 38E10E1C11, 5D8 and P36-033 at different concentrations and incubated for 1 h at room temperature. The liquid was discarded, and the plates were washed with PBST four times. The plates were added with HRP-labeled goat anti-mouse Fab antibody or goat anti-human FC antibody and incubated for 1 h at room temperature. Then the liquid was discarded, and the plates were washed four times with PBST and incubated with TMB colored solution in 10 minutes at room temperature. Stop color development by adding 2 mol/L H₂SO₄, and the absorption value at 450 nm is quantitated using an automated plate photometer, and the results were shown in FIG. 2.

The target of test [2] is T1, human LIF protein (human, UniProt P15018 23-202).
T1 construct: Bought recombinant protein (Sino Biological / Yiqiao Shenzhou 14890-HNAH) in most assays; also called recombinant human LIF protein; rhLIF
The test can be described thus: ELISA, human LIF coated at 1 µg/mL, A450. The protocol:
as §1, with “recombinant human” for “recombinant mouse”, “protein” for “protein (purchased from ACRO Biosystems)”, “μg/mL,” for “μg/mL, and”, “of the” for “of”, “FIG. 1.” for “FIG. 2.”

For another test, the target named is human IL-6 (human, UniProt P05231 30-212, limits assumed). The test can be described thus: ELISA, human IL-6 coated at 1 µg/mL, HRP goat anti-mouse Fab, A450. The protocol: After washed four times with PBST, HRP-labeled goat anti-mouse Fab secondary antibodies were added and incubated at room temperature for 1 h. After washed four times with PBST, TMB colored solution was added and color developing for 10 min at room temperature. The absorption value at 450 nm was read by the enzyme maker. The data were analyzed and plotted using Origin pro 9 software.
human IL-6, sequence (P05231 30-212 limits assumed): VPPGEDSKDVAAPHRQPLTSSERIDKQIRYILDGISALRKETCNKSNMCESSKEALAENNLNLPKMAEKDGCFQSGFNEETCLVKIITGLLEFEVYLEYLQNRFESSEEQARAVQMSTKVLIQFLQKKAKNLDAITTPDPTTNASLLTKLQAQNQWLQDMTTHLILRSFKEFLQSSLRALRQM

The target in test [3] is T1, human LIF protein. The test can be described thus: competition ELISA: human LIF coated at 1 µg/mL, LIFR-Fc 0.6125 µg/mL added together with the antibody, A450. The protocol:
The recombinant human LIF protein was coated on the enzyme label plate at a concentration of 1 μg/mL, LIFR protein (expressed fusedly with human FC) at a concentration of 0.6125 μg/mL was added (50 μL/well), and the anti-human LIF antibodies 38E10E1C11, P36-033 and 38E10E1C11R which is recombinantly expressed by CHO cells (SEQ ID NOs: 41 and 43) at different concentrations simultaneously were added separately (50 μL/well) and incubated for 2 h at room temperature. After washed four times with PBST, incubated with HRP-labeled goat anti-mouse FC secondary antibody for 1 h at room temperature. Then the plates were washed four times with PBST and added with TMB coloured solution in for 10 minutes. The absorption value at 450 nm is quantitated using an enzyme-labelling measuring instrument, and the data was analyzed and plotted using Origin pro 9 software.

Test [4] deals with T2, Mut4 heterozygous LIF protein (human LIF with residues 166-202 of …, UniProt P15018 23-201, limits assumed).
T2 construct: Secreted into the supernatant of transfected 293T cells; also called Mut4 protein
In words: western blot of 293T culture supernatants, primary antibody 38E10E1C11, HRP goat anti-mouse Fab.

In test [5] the target is T1, human LIF protein. The test can be described thus: competition ELISA: human LIF coated at 1 µg/mL, GP130-Fc 20 µg/mL added together with the antibody, A450. The protocol:
The recombinant human LIF protein was coated on the enzyme label plates at a concentration of 1 μg/mL, GP130 protein (expressed fusedly with human FC) at a concentration of 20 μg/mL was added (50 μL/well), and the anti-human LIF antibodies P36-033 and 38E10E1C11 at different concentrations simultaneously were added separately (50 μL/well), and incubated for 2 h at room temperature. At the same time, the control wells added with antibodies and without GP130 protein were set. Incubated for 2 h at room temperature. After washed four times with PBST, incubated with HRP-labeled goat anti-mouse FC secondary antibody for 1 h at room temperature. Then the plates were washed four times with PBST and added with TMB coloured solution in for 10 minutes. The absorption value at 450 nm is quantitated using an enzyme-labelling measuring instrument, and the data was analyzed and plotted using Origin pro 9 software.

Test [6] has as its target T1, human LIF protein. In words: KinExA 4000, solution equilibrium. The protocol:
The affinity of the purified monoclonal antibodies to the recombinant human LIF protein was determined by KinExA 4000. 200 mg PMMA hard beads were added with 30 μg of the 38E10E1C11 antibody and additional adding coating solution to 1 mL. The buffer composition is 1 xPBS, pH 7.4, 0.02% NaN3. And make sure that the beads were completely suspended in the solution, and rotated for 2 h at room temperature. The beads were naturally settled or quickly centrifuged at low speed. The supernatant was removed and the beads were blocked with PBS containing 1% BSA. 15 mL of 300 pM antigen solution and 15 mL of 240 pM Ab2 (38E10E1C11) solution were prepared. 0.6 mL of 300 pM antigen and 0.6 mL of 240 pM antibody Ab2 (38E10E1C11) were put into different sample tubes separately. The samples in the two tubes were well mixed and put together into one tube, the concentration of the antigen was 150 pM and the concentration of antibody Ab2 (38E10E1C11) was 120 pM at this time, and the solution was placed in the corresponding position in the tube holder. […] Each group was added with 1 μg/L1 Streptavidin Protein, DyLight 650 Solution, and was detected on machine set to incubate for 24 hours. In the KinExatm Pro software, the equilibrium dissociation constant (Kd) for n-curve analysis was calculated by the unknown ligand model, and the results are shown in FIG. 4.

B1: 38E10E1C11 antibody (antibody, mouse IgG1, kappa)
heavy: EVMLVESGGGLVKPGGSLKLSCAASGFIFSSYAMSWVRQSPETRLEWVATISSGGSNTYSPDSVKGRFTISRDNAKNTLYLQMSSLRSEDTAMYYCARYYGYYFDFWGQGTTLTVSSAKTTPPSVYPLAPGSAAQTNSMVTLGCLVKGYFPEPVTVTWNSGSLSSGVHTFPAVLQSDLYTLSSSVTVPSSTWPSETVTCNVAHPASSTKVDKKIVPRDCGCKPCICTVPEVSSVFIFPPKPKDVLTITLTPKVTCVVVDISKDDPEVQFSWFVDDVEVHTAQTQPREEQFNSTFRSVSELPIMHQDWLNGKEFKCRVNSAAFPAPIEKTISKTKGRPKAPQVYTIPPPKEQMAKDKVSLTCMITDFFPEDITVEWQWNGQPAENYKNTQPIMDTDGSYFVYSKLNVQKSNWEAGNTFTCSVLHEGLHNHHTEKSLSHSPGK
light: DIHMTQSPASLSASVGETVTITCRASENIYSYLAWYQQKQGKSPQLLVYNAKTLAEGVPSRFSGSGSGTQFSLKINSLQPEDFGSYYCQHHYVTPLTFGAGTKLELKRADAAPTVSIFPPSSEQLTSGGASVVCFLNNFYPKDINVKWKIDGSERQNGVLNSWTDQDSKDSTYSMSSTLTLTKDEYERHNSYTCEATHKTSTSPIVKSFNRNEC
notes: Mouse IgG1, kappa light chain; also called 38E10E1C11 mAb; mAb38E10E1C11
As for B1, the binding result was “no binding (tested: 100 µg/mL (log 2))” in test [1], “no binding (tested: 25 ug/ml)” with human IL-6 and “no binding” in test [4]. Besides, in the test with human LIF protein [2], the “EC50 (read off the curve)” value is around 0.05 µg/mL. Moreover, the “IC50 (read off the curve)” value is around 0.3 µg/mL with human LIF protein [3] and around 0.6 µg/mL with human LIF protein [5]. The molecule also returned a Kd with human LIF protein [6] of 4.52 pM.
